Numbering of substitutions follows the chain as printed. Where two headings read alike, the source gives them in different places.
What was measured:
[1] = molecular target: T1, IgC2 domain of human IGSF11 fused to murine IgG2a Fc-region (human; mouse, UniProt Q5DX21 137-241); assay: ELISA, IgG
T1 construct: also called IgC2-like domain mFc fusion; not shown: murine IgG2a Fc-region
T1 sequence: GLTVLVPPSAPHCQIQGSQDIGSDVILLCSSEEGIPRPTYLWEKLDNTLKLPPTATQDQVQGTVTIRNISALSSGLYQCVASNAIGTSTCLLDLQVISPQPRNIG

[2] = molecular target: T2, IGSF11 ECD fused to murine-Fc (human; mouse, UniProt Q5DX21 23-241); assay: ELISA, IgG
T2 construct: also called Fc-fusion IGSF11 ECD; full-length ECD of IGSF11; not shown: murine Fc
T2 sequence: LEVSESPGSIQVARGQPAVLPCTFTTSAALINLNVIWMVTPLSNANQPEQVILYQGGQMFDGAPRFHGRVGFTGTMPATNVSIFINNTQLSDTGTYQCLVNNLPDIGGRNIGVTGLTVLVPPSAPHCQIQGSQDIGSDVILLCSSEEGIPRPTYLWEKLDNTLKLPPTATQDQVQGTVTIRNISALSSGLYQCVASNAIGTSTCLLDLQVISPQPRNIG

[3] = molecular target: T3, His-tagged extracellular domain (ECD) of human IGSF11 (VSIG3) (human, UniProt Q5DX21 23-241); assay: ELISA: IgG1-format antibody titrated on coated His-tagged IGSF11; x axis nM IgG, y axis absorbance per legend
T3 construct: partly bought (SinoBiological 13094-H08H); also called IGSF11-HIS; HIS-IGSF11; not shown: HIS6 tag
T3 sequence: T2 sequence

[4] = molecular target: T4, human IGSF11 (VSIG3) on cells (human, UniProt Q5DX21 23-431); assay: FACS, IgG1-format antibodies; DMS 273 cells (D) treated with scrambled control siRNA (SC)
T4 sequence: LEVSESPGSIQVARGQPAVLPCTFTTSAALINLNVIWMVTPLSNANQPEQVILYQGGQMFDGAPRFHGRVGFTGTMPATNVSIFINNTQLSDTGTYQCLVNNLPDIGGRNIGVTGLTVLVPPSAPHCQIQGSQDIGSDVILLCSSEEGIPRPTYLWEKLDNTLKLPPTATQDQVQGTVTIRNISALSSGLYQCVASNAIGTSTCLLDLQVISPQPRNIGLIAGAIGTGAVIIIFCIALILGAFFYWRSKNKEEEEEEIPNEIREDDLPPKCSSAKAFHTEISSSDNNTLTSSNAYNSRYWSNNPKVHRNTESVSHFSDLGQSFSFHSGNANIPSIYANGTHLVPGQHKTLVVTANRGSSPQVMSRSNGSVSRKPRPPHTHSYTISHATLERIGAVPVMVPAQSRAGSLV

[5] = molecular target: T5, recombinant human IGSF11 (VSIG3) extracellular domain (ECD) (human, UniProt Q5DX21 23-241, biotinylated where captured on streptavidin); assay: SPR, IgG1
T5 construct: also called biotinylated recombinant ECD-IGSF11; IGSF11 (ECD domain)
T5 sequence: T2 sequence

[6] = molecular target: T4, human IGSF11 (VSIG3) on cells; assay: FACS, IgG1-format antibodies; CL-11 cells (C), a line that does not express IGSF11 (specificity control), IGSF11 siRNA (KD)
[7] = molecular target: T4, human IGSF11 (VSIG3) on cells; assay: FACS, HEK cells expressing IGSF11
[8] = molecular target: T4, human IGSF11 (VSIG3) on cells; assay: FACS, IgG1-format antibodies; DMS 273 cells (D) treated with IGSF11 siRNA (KD)
[9] = molecular target: T4, human IGSF11 (VSIG3) on cells; assay: FACS, IgG1-format antibodies; M579-A2-luc cells (M) treated with scrambled control siRNA (SC)
[10] = molecular target: T4, human IGSF11 (VSIG3) on cells; assay: FACS, IgG1-format antibodies; M579-A2-luc cells (M) treated with IGSF11 siRNA (KD)
[11] = molecular target: T3, His-tagged extracellular domain (ECD) …; assay: ELISA EC50 grade, IgG1
[12] = molecular target: T4, human IGSF11 (VSIG3) on cells; assay: FACS, DMS 273 cells
[13] = molecular target: T4, human IGSF11 (VSIG3) on cells; assay: FACS, IgG1-format antibodies; CL-11 cells (C), a line that does not express IGSF11 (specificity control), scrambled control siRNA (SC)
[14] = molecular target: T5, recombinant human IGSF11 (VSIG3) …; assay: BLI, IgG1
[15] = molecular target: T3, His-tagged extracellular domain (ECD) …; assay: blocking ELISA: antibody pre-incubated with His-tagged IGSF11 ECD, complexes added to immobilised VSIR-Fc; y axis % remaining IGSF11 binding to VSIR, x axis nM IgG per legend
[16] = molecular target: T3, His-tagged extracellular domain (ECD) …; assay: as above; remark: listed apart in the source
[17] = molecular target: T3, His-tagged extracellular domain (ECD) …; assay: ELISA: IgG1-format antibody titrated on coated His-tagged IGSF11; x axis nM IgG, y axis absorbance per legend; remark: listed apart in the source
[18] = molecular target: T3, His-tagged extracellular domain (ECD) …; assay: as above; remark: listed apart in the source
[19] = molecular target: T3, His-tagged extracellular domain (ECD) …; assay: blocking ELISA: antibody pre-incubated with His-tagged IGSF11 ECD, complexes added to immobilised VSIR-Fc; y axis % remaining IGSF11 binding to VSIR, x axis nM IgG per legend; remark: listed apart in the source
[20] = molecular target: T3, His-tagged extracellular domain (ECD) …; assay: ELISA, IgG1
[21] = molecular target: T4, human IGSF11 (VSIG3) on cells; assay: FACS, MDA-MB-231-IGSF11 cells, IgG
From the text: (§1) Unbound antibodies were removed by washing the cells three time with FACS buffer. Bound antibodies were detected with a mouse anti-human IgG antibody conjugated with AlexaFluor647.

murine IGSF11 on cells [22] = molecular target: T6, murine IGSF11 on cells (mouse, UniProt P0C673 23-428); assay: FACS, MC38-IGSF11 cells, IgG
T6 construct: UniProt P0C673; also called MC38-IGSF11 (murine); CT26-IGSF11 (murine)
T6 sequence: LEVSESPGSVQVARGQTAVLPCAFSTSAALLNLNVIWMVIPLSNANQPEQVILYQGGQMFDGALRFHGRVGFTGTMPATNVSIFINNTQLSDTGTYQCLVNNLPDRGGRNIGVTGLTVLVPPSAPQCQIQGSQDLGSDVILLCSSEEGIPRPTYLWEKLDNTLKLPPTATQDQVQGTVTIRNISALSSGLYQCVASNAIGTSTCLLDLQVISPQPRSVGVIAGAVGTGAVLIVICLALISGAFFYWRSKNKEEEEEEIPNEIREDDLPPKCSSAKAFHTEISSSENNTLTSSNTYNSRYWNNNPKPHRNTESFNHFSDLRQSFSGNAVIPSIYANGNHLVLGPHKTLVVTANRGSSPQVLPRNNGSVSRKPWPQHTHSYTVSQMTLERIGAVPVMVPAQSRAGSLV
From the text: as §1

murine IGSF11 on cells [23] = molecular target: T6, murine IGSF11 on cells; assay: FACS, CT26-IGSF11 cells, IgG
From the text: as §1

[24] = molecular target: T5, recombinant human IGSF11 (VSIG3) …; assay: BLI, apparent affinity, IgG captured, IGSF11 ECD 100 nM
From the text: Briefly, various APBs were loaded on an optical biosensor via a commercially available Capture System (AHC sensors, ForteBio).

B1: C-014 (IgG1 format) (antibody, V domains shown)
VH: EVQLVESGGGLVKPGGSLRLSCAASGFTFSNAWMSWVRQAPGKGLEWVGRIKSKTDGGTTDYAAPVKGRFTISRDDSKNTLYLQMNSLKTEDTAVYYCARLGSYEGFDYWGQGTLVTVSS
VL: SYELTQPPSVSVSPGQTASITCSGDKLGDKYASWYQQKPGQSPVLVIYQDSKRPSGIPERFSGSNSGNTATLTISGTQAEDEADYYCSTYTVTSSVVVFGGGTKLTVL
notes: wildtype human IgG1 and kappa or lambda constant regions
For B1, the EC50 [1] was < 1 nM and the EC50 [2] was 1 to 20 nM.

B2: A-012 (IgG1 format) (antibody, V domains shown)
VH: EVQLLESGGGLIQPGGSLRLSCAVSGFTVSSNYMSWVRQAPGKGLEWVSVIYSGGSTYYADSVKGRFTISRDNSKNTLYLQMNSLRAEDTAVYYCARGNPYYYGDLQVNFDYWGQGTLVTVSS
VL: QAVVTQEPSLTVSPGGTVTLTCASSTGAVTSGYYPNWFQQKPGQAPRALIYSTSNKHSWTPARFSGSLLGGKAALTLSGVQPEDEAEYYCLLYYGGAWVFGGGTKLTVL
notes: human IgG1 format
B2 was tested, and the “EC50 (read off the curve)” value [3] was ~0.007 nM, the “percentage binding (FACS heat-map)” value [4] was 75.8% and the Kd [5] was 250 to 500 nM. The “percentage binding (FACS heat-map)” value [6] was 3.93%, the EC50 [7] was 10 to 50 nM and the “percentage binding (FACS heat-map)” value [8] was 4.77%. The “percentage binding (FACS heat-map)” value [9] was 65.4%, the “percentage binding (FACS heat-map)” value [10] was 2.35% and the EC50 [11] was 0.02 to 0.05 nM. For the same binder, the EC50 [12] was 10 to 50 nM, the “percentage binding (FACS heat-map)” value [13] was 5.11% and the Kd [14] was 1 to 10 nM. The “IC50 (read off the curve)” value [15] was ~2 nM.

B3: B-006 (chain-swapped IgG1) (antibody, V domains shown)
VH: B2 VH with L5V, V24A
VL: B2 VL with G16E, K41R, H57D
notes: human IgG1 format; also called B6
B3 was tested, and the “IC50 (read off the curve)” value [16] was ~5 nM and the “EC50 (read off the curve)” value [17] was ~0.02 nM.

B4: B-004 (chain-swapped IgG1) (antibody, V domains shown)
VH: B2 VH
VL: B2 VL with A48P, E83D, A97D
notes: human IgG1 format; also called B4
B4 was tested, and the “EC50 (read off the curve)” value [18] was ~0.02 nM and the “IC50 (read off the curve)” value [19] was ~5 nM.

B5: B-007 (chain-swapped IgG1) (antibody, V domains shown)
VH: B2 VH with L5V, V24A
VL: B2 VL with G32A, E87D
notes: human IgG1 format; also called B7
B5 was tested, and the “IC50 (read off the curve)” value [16] was ~3 nM and the “EC50 (read off the curve)” value [17] was ~0.01 nM.

B6: B-005 (chain-swapped IgG1) (antibody, V domains shown)
VH: B2 VH
VL: B2 VL with L20P, A23G, Y33N, Y34L, F64I
notes: human IgG1 format; also called B5
B6 was tested, and the “EC50 (read off the curve)” value [3] was ~0.01 nM and the “IC50 (read off the curve)” value [15] was ~2 nM.

B7: B-003 (chain-swapped IgG1) (antibody, V domains shown)
VH: B2 VH
VL: B2 VL with G16E, K41R, H57D
notes: human IgG1 format; also called B3
With B7 the “EC50 (read off the curve)” value [3] was ~0.008 nM and the “IC50 (read off the curve)” value [15] was ~2 nM.

B8: C-011 (IgG1 format) (antibody, V domains shown)
VH: QVQLVQSGAEVKKPGSSVKVSCKASGGTFSSYAISWVRQAPGQGLEWMGGIIPIFGTANYAQKFQGRVTITADESTSTAYMELSSLRSEDTAVYYCARHSTPSFLQYWGQGTLVTVSS
VL: SYELTQPPSVSVSPGQTASITCSGDKLGDKYASWYQQKPGQSPVLVIYQDSKRPSGIPERFSGSNSGNTATLTISGTQAEDEADYYCAVYPAHASARWVFGGGTKLTVL
notes: as for B1
With B8 the EC50 [1] was < 1 nM and the EC50 [2] was < 1 nM.

B9: A-037 (IgG1 format) (antibody, V domains shown)
VH: QVQLVQSGAEVKKPGASVKVSCKASGYTFTGYYMHWVRQAPGQGLEWMGWINPNSGNTGYAQKFQGRVTMTRNTSISTAYMELSSLRSEDTAVYYCARGGQQQLVLDDYWGQGTLVTVSS
VL: NFMLTQPHSVSESPGKTVTISCTGSSGSIASNYVQWYQQRPGSAPTTVIYEDNQRPSGVPDRFSGSIDSSSNSASLTISGLKTEDEADYYCQSYDSSNQRVFGGGTKLTVL
notes: human IgG1 format
B9: binds [20].

B10: C-003 (IgG1 format) (antibody, V domains shown)
VH: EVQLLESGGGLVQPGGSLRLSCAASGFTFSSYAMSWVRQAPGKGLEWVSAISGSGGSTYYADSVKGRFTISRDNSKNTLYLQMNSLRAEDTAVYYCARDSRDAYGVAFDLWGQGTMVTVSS
VL: ASVLTQPPSVSAAPGQKVTISCSGSSSNIGNNYVSWYQQLPGTAPKLLIYDNNKRPSGIPDRFSGSKSGTSATLGITGLQAEDEADYYCLSYTSSQYVFGGGTKLTVL
notes: as for B1
In the case of B10, the EC50 [1] is reported as < 1 nM, the EC50 [2] is reported as < 1 nM and the EC50 [21] is reported as 10 to 15 nM. The EC50 (murine IGSF11 on cells [22]) was < 20 nM, the EC50 (murine IGSF11 on cells [23]) was < 20 nM and the Kd [24] was < 15 nM.
